Reference: paper PMC9482650, “Quantitative fragmentomics allow affinity mapping of interactomes” (Nature Communications, 2022)

T1: RHPN1, Q8TCX5
T1 sequence (Q8TCX5 508-602, limits assumed, looked up): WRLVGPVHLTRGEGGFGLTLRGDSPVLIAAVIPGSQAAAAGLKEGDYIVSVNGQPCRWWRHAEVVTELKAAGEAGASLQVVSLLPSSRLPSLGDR

T2: MPDZ_5, O75970
T2 sequence (O75970 695-796, limits assumed, looked up): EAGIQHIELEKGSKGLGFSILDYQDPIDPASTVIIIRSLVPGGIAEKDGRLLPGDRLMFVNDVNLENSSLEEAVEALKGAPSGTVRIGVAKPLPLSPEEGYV

T3: LRRC7, Q96NW7
T3 sequence (Q96NW7 1440-1537, limits assumed, looked up): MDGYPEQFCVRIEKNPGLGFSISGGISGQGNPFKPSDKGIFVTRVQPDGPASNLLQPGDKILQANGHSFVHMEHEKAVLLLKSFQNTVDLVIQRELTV

T4: ARHGAP21, Q5T5U3
T4 sequence (Q5T5U3 45-169, limits assumed, looked up): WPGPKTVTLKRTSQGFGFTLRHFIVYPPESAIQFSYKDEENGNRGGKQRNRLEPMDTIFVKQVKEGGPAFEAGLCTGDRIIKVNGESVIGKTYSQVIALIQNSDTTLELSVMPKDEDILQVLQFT

T5: MPDZ_10, O75970
T5 sequence (O75970 1624-1722, limits assumed, looked up): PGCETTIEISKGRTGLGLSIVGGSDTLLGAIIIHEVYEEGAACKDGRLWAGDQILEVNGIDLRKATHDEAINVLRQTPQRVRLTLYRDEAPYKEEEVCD

T6: HTRA3, P83110
T6 sequence (P83110 354-453, limits assumed, looked up): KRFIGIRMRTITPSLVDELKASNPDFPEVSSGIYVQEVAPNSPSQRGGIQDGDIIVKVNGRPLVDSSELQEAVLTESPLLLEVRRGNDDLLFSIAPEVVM

T7: DFNB31_2, Q9P202
T7 sequence (Q9P202 274-371, limits assumed, looked up): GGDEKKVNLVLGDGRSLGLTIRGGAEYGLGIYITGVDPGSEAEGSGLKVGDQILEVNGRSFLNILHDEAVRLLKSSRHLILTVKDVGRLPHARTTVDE

T8: PDZRN3_1, Q9UPQ7
T8 sequence (Q9UPQ7 244-349, limits assumed, looked up): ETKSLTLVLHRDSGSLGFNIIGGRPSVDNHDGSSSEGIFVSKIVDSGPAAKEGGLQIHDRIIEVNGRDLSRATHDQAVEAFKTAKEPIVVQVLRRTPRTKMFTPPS

T9: FRMPD1, Q5SYB0
T9 sequence (Q5SYB0 52-145, limits assumed, looked up): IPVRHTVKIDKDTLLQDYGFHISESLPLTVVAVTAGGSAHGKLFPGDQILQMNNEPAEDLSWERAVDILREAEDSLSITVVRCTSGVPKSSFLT

T10: MPP7, Q5T2T1
T10 sequence (Q5T2T1 134-230, limits assumed, looked up): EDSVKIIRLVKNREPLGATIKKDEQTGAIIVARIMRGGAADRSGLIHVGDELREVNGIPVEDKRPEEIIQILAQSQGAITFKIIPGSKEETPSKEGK

T11: SNTB1, Q13884
T11 sequence (Q13884 107-205, limits assumed, looked up): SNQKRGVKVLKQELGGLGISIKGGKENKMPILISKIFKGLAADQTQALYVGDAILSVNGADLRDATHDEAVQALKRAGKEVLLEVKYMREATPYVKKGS

B1: POLR1D, P0DPB6 (peptide)
chain: QKASRNESTF
B2: TRPM1, Q7Z4N2 (peptide)
chain: KEKASTETEC

target: T1, RHPN1, Q8TCX5; experiment: holdup assay; design: key: below the threshold = too weak to quantify, mostly under pKd 3.1 to 4; details: plain residues with an end cap or a label only (N-terminal biotin on a linker: ado-ado)

Binder | pKd
B1 | below the threshold
B2 | below the threshold

target: SCRIB_1, Q14160; experiment: holdup assay; design: key: below the threshold = too weak to quantify, mostly under pKd 3.1 to 4; details: plain residues with an end cap or a label only (N-terminal biotin on a linker: ado-ado)
Sequence (Q14160 718-814): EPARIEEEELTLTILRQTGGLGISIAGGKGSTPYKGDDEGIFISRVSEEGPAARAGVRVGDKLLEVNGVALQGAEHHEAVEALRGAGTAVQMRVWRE

Binder | pKd
B1 | 3.55
B2 | 4.31

target: T2, MPDZ_5, O75970; experiment: holdup assay; design: key: below the threshold = too weak to quantify, mostly under pKd 3.1 to 4; details: plain residues with an end cap or a label only (N-terminal biotin on a linker: ado-ado)

Binder | pKd
B1 | below the threshold
B2 | below the threshold

target: T3, LRRC7, Q96NW7; experiment: holdup assay; design: key: below the threshold = too weak to quantify, mostly under pKd 3.1 to 4; details: plain residues with an end cap or a label only (N-terminal biotin on a linker: ado-ado)

Binder | pKd
B1 | below the threshold
B2 | below the threshold

target: Inadl_1, Q8NI35; experiment: holdup assay; design: key: below the threshold = too weak to quantify, mostly under pKd 3.1 to 4; details: plain residues with an end cap or a label only (N-terminal biotin on a linker: ado-ado)
Sequence (Q8NI35 113-229): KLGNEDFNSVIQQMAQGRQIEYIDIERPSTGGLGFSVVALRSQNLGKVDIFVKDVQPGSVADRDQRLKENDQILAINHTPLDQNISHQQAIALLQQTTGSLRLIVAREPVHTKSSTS

Binder | pKd
B1 | below the threshold
B2 | below the threshold

target: T4, ARHGAP21, Q5T5U3; experiment: holdup assay; design: key: below the threshold = too weak to quantify, mostly under pKd 3.1 to 4; details: plain residues with an end cap or a label only (N-terminal biotin on a linker: ado-ado)

Binder | pKd
B1 | below the threshold
B2 | 3.97

target: Inadl_3, Q8NI35; experiment: holdup assay; design: key: below the threshold = too weak to quantify, mostly under pKd 3.1 to 4; details: plain residues with an end cap or a label only (N-terminal biotin on a linker: ado-ado)
Sequence (Q8NI35 359-469): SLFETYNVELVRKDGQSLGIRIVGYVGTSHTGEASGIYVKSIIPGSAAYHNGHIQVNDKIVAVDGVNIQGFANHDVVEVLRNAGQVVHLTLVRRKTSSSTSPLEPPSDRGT

Binder | pKd
B1 | below the threshold
B2 | below the threshold

target: T5, MPDZ_10, O75970; experiment: holdup assay; design: key: below the threshold = too weak to quantify, mostly under pKd 3.1 to 4; details: plain residues with an end cap or a label only (N-terminal biotin on a linker: ado-ado)

Binder | pKd
B1 | below the threshold
B2 | below the threshold

target: GORASP1, Q9BQQ3; experiment: holdup assay; design: key: below the threshold = too weak to quantify, mostly under pKd 3.1 to 4; details: plain residues with an end cap or a label only (N-terminal biotin on a linker: ado-ado)
Sequence (Q9BQQ3 1-208): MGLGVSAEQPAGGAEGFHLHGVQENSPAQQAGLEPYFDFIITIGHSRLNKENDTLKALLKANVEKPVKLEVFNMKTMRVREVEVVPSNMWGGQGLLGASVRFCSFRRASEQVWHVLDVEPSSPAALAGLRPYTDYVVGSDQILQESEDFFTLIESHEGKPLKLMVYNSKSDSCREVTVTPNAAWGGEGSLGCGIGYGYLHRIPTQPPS

Binder | pKd
B1 | below the threshold
B2 | below the threshold

target: FRMPD2_2, Q68DX3; experiment: holdup assay; design: key: below the threshold = too weak to quantify, mostly under pKd 3.1 to 4; details: plain residues with an end cap or a label only (N-terminal biotin on a linker: ado-ado)
Sequence (Q68DX3 944-1038): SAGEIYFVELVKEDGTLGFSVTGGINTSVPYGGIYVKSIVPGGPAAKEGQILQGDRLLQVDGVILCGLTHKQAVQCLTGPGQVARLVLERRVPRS

Binder | pKd
B1 | below the threshold
B2 | below the threshold

target: Inadl_4, Q8NI35; experiment: holdup assay; design: key: below the threshold = too weak to quantify, mostly under pKd 3.1 to 4; details: plain residues with an end cap or a label only (N-terminal biotin on a linker: ado-ado)
Sequence (Q8NI35 547-651): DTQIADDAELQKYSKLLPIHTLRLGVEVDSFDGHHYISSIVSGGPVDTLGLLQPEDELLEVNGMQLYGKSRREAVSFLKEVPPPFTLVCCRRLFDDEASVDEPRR

Binder | pKd
B1 | below the threshold
B2 | below the threshold

target: T6, HTRA3, P83110; experiment: holdup assay; design: key: below the threshold = too weak to quantify, mostly under pKd 3.1 to 4; details: plain residues with an end cap or a label only (N-terminal biotin on a linker: ado-ado)

Binder | pKd
B1 | below the threshold
B2 | 3.58

target: T7, DFNB31_2, Q9P202; experiment: holdup assay; design: key: below the threshold = too weak to quantify, mostly under pKd 3.1 to 4; details: plain residues with an end cap or a label only (N-terminal biotin on a linker: ado-ado)

Binder | pKd
B1 | below the threshold
B2 | below the threshold

target: GORASP2, Q9H8Y8; experiment: holdup assay; design: key: below the threshold = too weak to quantify, mostly under pKd 3.1 to 4; details: plain residues with an end cap or a label only (N-terminal biotin on a linker: ado-ado)

Binder | pKd
B1 | below the threshold
B2 | below the threshold

target: DLG4_1, P78352; experiment: holdup assay; design: key: below the threshold = too weak to quantify, mostly under pKd 3.1 to 4; details: plain residues with an end cap or a label only (N-terminal biotin on a linker: ado-ado)
Sequence (P78352 62-152): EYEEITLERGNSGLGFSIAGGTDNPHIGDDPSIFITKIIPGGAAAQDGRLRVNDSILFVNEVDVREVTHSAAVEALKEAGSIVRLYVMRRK

Binder | pKd
B1 | below the threshold
B2 | 3.88

target: TJP1_2, Q07157; experiment: holdup assay; design: key: below the threshold = too weak to quantify, mostly under pKd 3.1 to 4; details: plain residues with an end cap or a label only (N-terminal biotin on a linker: ado-ado)
Sequence (Q07157 181-274): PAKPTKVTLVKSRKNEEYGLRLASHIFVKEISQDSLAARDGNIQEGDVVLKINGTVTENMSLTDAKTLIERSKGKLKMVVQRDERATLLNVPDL

Binder | pKd
B1 | below the threshold
B2 | below the threshold

target: GRIP2_6, Q9C0E4; experiment: holdup assay; design: key: below the threshold = too weak to quantify, mostly under pKd 3.1 to 4; details: plain residues with an end cap or a label only (N-terminal biotin on a linker: ado-ado)
Sequence (Q9C0E4 648-740): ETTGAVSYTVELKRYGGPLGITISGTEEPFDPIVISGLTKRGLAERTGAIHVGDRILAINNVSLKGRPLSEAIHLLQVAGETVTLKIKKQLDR

Binder | pKd
B1 | below the threshold
B2 | below the threshold

target: SCRIB_3, Q14160; experiment: holdup assay; design: key: below the threshold = too weak to quantify, mostly under pKd 3.1 to 4; details: plain residues with an end cap or a label only (N-terminal biotin on a linker: ado-ado)
Sequence (Q14160 999-1103): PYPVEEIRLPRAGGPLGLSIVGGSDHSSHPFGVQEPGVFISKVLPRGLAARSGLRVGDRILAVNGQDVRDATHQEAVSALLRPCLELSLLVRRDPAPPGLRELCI

Binder | pKd
B1 | 4.12
B2 | 4.23

target: IL16_1, Q14005; experiment: holdup assay; design: key: below the threshold = too weak to quantify, mostly under pKd 3.1 to 4; details: plain residues with an end cap or a label only (N-terminal biotin on a linker: ado-ado)
Sequence (Q14005 210-306): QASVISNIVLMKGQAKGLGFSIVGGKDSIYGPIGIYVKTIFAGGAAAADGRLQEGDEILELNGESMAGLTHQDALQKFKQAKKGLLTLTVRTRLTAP

Binder | pKd
B1 | below the threshold
B2 | below the threshold

target: PDLIM1, O00151; experiment: holdup assay; design: key: below the threshold = too weak to quantify, mostly under pKd 3.1 to 4; details: plain residues with an end cap or a label only (N-terminal biotin on a linker: ado-ado)
Sequence (O00151 1-87): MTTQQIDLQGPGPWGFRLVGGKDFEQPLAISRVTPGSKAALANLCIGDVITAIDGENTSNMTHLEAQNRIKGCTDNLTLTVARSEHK

Binder | pKd
B1 | below the threshold
B2 | below the threshold

target: T8, PDZRN3_1, Q9UPQ7; experiment: holdup assay; design: key: below the threshold = too weak to quantify, mostly under pKd 3.1 to 4; details: plain residues with an end cap or a label only (N-terminal biotin on a linker: ado-ado)

Binder | pKd
B1 | below the threshold
B2 | below the threshold

target: DLG2_3, Q15700; experiment: holdup assay; design: key: below the threshold = too weak to quantify, mostly under pKd 3.1 to 4; details: plain residues with an end cap or a label only (N-terminal biotin on a linker: ado-ado)

Binder | pKd
B1 | 3.82
B2 | below the threshold

target: T9, FRMPD1, Q5SYB0; experiment: holdup assay; design: key: below the threshold = too weak to quantify, mostly under pKd 3.1 to 4; details: plain residues with an end cap or a label only (N-terminal biotin on a linker: ado-ado)

Binder | pKd
B1 | below the threshold
B2 | below the threshold

target: NHERF4_1, Q86UT5-2; experiment: holdup assay; design: key: below the threshold = too weak to quantify, mostly under pKd 3.1 to 4; details: plain residues with an end cap or a label only (N-terminal biotin on a linker: ado-ado)
Sequence (Q86UT5 other isoform, or with tags, fused parts or gaps): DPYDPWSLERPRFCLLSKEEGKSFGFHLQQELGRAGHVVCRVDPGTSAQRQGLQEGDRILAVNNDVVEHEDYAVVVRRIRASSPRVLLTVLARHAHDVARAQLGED

Binder | pKd
B1 | below the threshold
B2 | 3.66

target: T10, MPP7, Q5T2T1; experiment: holdup assay; design: key: below the threshold = too weak to quantify, mostly under pKd 3.1 to 4; details: plain residues with an end cap or a label only (N-terminal biotin on a linker: ado-ado)

Binder | pKd
B1 | below the threshold
B2 | below the threshold

target: NHERF4_4, Q86UT5; experiment: holdup assay; design: key: below the threshold = too weak to quantify, mostly under pKd 3.1 to 4; details: plain residues with an end cap or a label only (N-terminal biotin on a linker: ado-ado)
Sequence (Q86UT5 464-550): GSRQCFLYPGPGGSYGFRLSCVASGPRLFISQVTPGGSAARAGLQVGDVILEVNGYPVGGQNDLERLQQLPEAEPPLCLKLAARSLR

Binder | pKd
B1 | 3.81
B2 | below the threshold

target: T11, SNTB1, Q13884; experiment: holdup assay; design: key: below the threshold = too weak to quantify, mostly under pKd 3.1 to 4; details: plain residues with an end cap or a label only (N-terminal biotin on a linker: ado-ado)

Binder | pKd
B1 | below the threshold
B2 | 4.17
